These results are taken from patent US20240024520A1, “AUTONOMOUS KNOB DOMAIN PEPTIDES” (UCB BIOPHARMA SRL, priority 2020, published 2024).

In this assay the target is C5 (Homo sapiens, UniProt P01031). Nature of the assay: Monoclonal phage screening ELISA, human C5. The assay is classed as binding. The protocol: For the C5 libraries, a single round of enrichment was performed with either human or rat C5 protein. […] Phage were blocked for 30 minutes. Biotinylated antigen was added to the blocked phage at a concentration of 100 nM and incubated at room temperature with mixing.
Chain of C5 (P01031 19-1676): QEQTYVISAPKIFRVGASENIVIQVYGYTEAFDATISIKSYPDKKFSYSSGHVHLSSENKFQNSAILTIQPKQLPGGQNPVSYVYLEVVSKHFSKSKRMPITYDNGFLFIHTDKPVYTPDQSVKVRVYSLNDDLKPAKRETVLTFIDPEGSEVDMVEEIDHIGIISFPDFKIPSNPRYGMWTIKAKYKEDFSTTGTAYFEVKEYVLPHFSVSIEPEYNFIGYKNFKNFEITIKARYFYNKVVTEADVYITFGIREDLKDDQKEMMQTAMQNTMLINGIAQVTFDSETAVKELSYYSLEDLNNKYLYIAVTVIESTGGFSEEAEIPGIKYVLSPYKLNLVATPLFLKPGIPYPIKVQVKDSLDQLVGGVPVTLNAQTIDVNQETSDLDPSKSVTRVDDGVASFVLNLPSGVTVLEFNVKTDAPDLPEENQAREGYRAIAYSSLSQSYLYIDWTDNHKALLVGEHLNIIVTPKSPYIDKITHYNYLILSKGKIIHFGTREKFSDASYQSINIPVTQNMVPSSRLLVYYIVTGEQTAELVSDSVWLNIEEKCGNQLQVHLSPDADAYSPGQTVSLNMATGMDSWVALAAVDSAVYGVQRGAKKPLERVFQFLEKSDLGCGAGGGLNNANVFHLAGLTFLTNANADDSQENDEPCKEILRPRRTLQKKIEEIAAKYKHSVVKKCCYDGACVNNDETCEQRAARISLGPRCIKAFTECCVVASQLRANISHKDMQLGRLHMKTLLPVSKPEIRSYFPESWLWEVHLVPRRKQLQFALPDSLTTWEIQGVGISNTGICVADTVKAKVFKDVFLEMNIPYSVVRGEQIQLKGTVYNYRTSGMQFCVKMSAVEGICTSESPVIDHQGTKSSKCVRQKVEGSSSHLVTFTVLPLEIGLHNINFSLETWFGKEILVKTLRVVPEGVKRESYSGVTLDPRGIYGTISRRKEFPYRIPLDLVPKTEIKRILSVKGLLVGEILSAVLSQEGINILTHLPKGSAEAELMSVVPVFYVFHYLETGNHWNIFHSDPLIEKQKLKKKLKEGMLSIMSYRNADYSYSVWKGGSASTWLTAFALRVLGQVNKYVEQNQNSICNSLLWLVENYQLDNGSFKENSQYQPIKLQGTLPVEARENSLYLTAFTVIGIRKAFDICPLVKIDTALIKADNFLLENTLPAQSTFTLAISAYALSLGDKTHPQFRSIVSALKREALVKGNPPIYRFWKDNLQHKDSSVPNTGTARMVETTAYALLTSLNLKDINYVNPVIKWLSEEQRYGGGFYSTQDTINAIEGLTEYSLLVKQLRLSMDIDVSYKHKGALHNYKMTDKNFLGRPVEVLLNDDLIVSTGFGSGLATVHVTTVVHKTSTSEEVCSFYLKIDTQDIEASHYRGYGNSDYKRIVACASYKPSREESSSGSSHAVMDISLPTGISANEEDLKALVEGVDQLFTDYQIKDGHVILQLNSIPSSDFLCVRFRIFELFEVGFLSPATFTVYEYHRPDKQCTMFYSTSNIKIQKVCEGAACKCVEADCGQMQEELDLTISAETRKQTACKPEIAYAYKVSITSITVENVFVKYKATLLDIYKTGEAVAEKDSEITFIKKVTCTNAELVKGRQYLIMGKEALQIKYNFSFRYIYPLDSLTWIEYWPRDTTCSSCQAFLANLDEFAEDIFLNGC
Colonies were picked into a 96-well culture plate containing selective medium 2TY supplemented with 1% Glucose and 100 μg/ml Carbenicillin and was incubated at 37° C. until wells reached mid-log phase of growth prior to addition of M13K07 helper phage. The block was incubated without shaking for 1 hour to achieve infection and phage production using continued culture in selective media supplemented with 50 μg/ml Kanamycin and 100 μg/ml Carbenicillin.
Binding to antigen was assessed by monoclonal phage ELISA, 96-well flat bottom Nunc MaxiSorp plates (Thermofisher) were coated with a 2.5 μg/ml solution of human, mouse, or rat serum albumin, human C5 or mouse C5 diluted with PBS, and left overnight at 4° C. Negative control plate and Anti-myc tag plate were also prepared.
Monoclonal phage rescue supernatants were blocked with an equal volume of a 2% milk (w/v) in PBS, for serum albumin proteins, or 2% BSA and 2% milk (w/v) in PBS solution. The coating solution was removed from coated Nunc plates and each plate was blocked with 1% BSA in PBS (for C5 libraries) or 1% milk powder (for albumin library). Both phage and Nunc plates were blocked for 1 hour at room temperature. Nunc plates were washed using a 96-well microplate washer (BioTek) with a PBS solution contain 0.1% Tween20 (Sigma Aldrich). 100 of blocked phage solution was added to each well of Nunc MaxiSorp plate and left shaking at room temperature for 1 hour. Plates were washed and dried as previously described. 100 of an Anti-M13-Horse radish peroxidase conjugated antibody (GE Healthcare) diluted (1:5,000) in a 1% BSA or milk solution was added to each well and left shaking at room temperature for 1 hour. Plates were washed again and 50 μL of TMB solution (Merck Millipore) was added to each well. Plates were left shaking for 10 minutes. Absorbance was measured at 630 nm and 490 nm. Binding signals were obtained where Absorbance at 630 nm was >3-times the signal upon irrelevant antigen.
By monoclonal phage ELISA the following ultralong CDR-H3 sequences were identified as binders (OD>0.2 AU): […]

The mark [1] stands for this setting: anti-C5 ultralong CDR-H3, binder = OD>0.2 AU.
[2] abbreviates: knob domain of the anti-C5 ultralong CDR-H3.

“541 (TTVHQRTIKSGCPPGYKSGVDCSPGSECKWGCYAVDGRRYGGYGADSGVGSTYTHEYHVE; Anti-C5 ultralong CDR-H3) [compound 541]”: the Specificity result under setting [1] is “Human”.
As to “543 (TTVHQRTLKNRNCPDGYGYQRHCTVGEDCTDHCCDAYGLCTSYTYTYTYEWYVD; Anti-C5 ultralong CDR-H3) [compound 543]”, the Specificity entry under setting [1] is recorded as “Human”.
Take “544 (TTVHQRTLKNRNCPDGYGYQRHCTVGEDCTDSCCDRYGLCTTSTETYTYELYVE; Anti-C5 ultralong CDR-H3) [compound 544]”: the Specificity result under setting [1] is recorded as “Human”.
Consider “545 (TTVHQRTLKNRNRPEGYGYQRHCTVGEECTDSCCDRYGLCTTSTETYTYEWYVD; Anti-C5 ultralong CDR-H3) [compound 545]”, for which, under setting [1], the Specificity result is reported as “Human”.
Consider “546 (TTVHQRTKKTCPLGYDLNDRCDHFNTCRVEECCKNGVVNAYGICEYAGGSATYTYEWYVE; Anti-C5 ultralong CDR-H3) [compound 546]”, for which the Specificity entry under setting [1] is given as “Human”.
The same measure, in the same setting: as for “547 (TTVHQRTLKNRNCPDGYGYQRHCTVGEDCTDSCCDRYGLCTTSTETYTYEFYVN; Anti-C5 ultralong CDR-H3) [compound 547]”, the entry is “Human”; as for “548 (TTVHQRTLKNRNCPDGYGYQRHCTVGEDCTDSCCDRYGLCTTSTETYTYEWYVD; Anti-C5 ultralong CDR-H3) [compound 548]”, “Human”; as for “549 (TTVHQRTLKNRNCPDGYGYQRHCTVGEDCTDSCCDRYGLCTTSTETYTYEWYVD; Anti-C5 ultralong CDR-H3) [compound 549]”, “Human”.
Take “550 (TTVHQRTLHNRNCPDGYGYQRHCTVGEDCTERCCDNYGLCTSYTDTYTYEFYVN; Anti-C5 ultralong CDR-H3) [compound 550]”: the Specificity entry under setting [1] is on record as “Human”.
For “559 (TTVHQRTAKRCPSNNEDATACRYSSVCGDYVCEGLSESYAQGWGACRRYACRDSYEWYVD; Anti-C5 ultralong CDR-H3) [compound 559]”, the Specificity result under setting [1] was “Human”.
On to “560 (TTVHQRTAKRCPSNNEDATACRYSSVCGDYVCEGLSESYAQGWGACRRYACRDSYEWYVD; Anti-C5 ultralong CDR-H3) [compound 560]”, for which the Specificity result under setting [1] is listed as “Human”.
As for “561 (TTVHQQTNKRRQNCPDGYEYNGFCTPDGGCSRVSNWGWDRSCISPTYTYTYEWYVE; Anti-C5 ultralong CDR-H3) [compound 561]”, the Specificity entry under setting [1] is given as “Human”.
In the case of “562 (TTVHQQTTKKSSCPDGYCDCNGCGYGNGCSRGGCFDFRLYSGYSADIVVSTTYTHDFYID; Anti-C5 ultralong CDR-H3) [compound 562]”, under setting [1], the Specificity result is “Human”.
Consider “565 (TTVHQRTIKSGCPPGYKSGVDCSPGSECKWGCYAVDGRRYGGYGADSGVGSTYTHELYVE; Anti-C5 ultralong CDR-H3) [compound 565]”, for which the Specificity result under setting [1] was “Human”.
Still for that read-out and setting: for “566 (TTVVQRTKRTCPEGLVYNSDQSRCCAADSGVCWEYWRGERVTRGFTYEWYVD; Anti-C5 ultralong CDR-H3) [compound 566]” the value was “Human”; for “567 (TTVHQRTTKRCPSNNEDATACRYSSVCGDYVCEGLSESYAQGWGACRRYACRDSYEWYVD; Anti-C5 ultralong CDR-H3) [compound 567]”, “Human”.
For the substance “569 (TTVHQRTAKRCPSNNEEATACRYSSVCGDYVCEGLSESYAQGWGACRRYACRDSYEWYVD; Anti-C5 ultralong CDR-H3) [compound 569]”, the Specificity entry under setting [1] is listed as “Human”.
For the substance “570 (TTVHQRTIKSGCPPGYKSGVDCSPGSEYKWGCYAVDGRRYGGYGADSGVGSTYTHEFYVN; Anti-C5 ultralong CDR-H3) [compound 570]”, the Specificity result under setting [1] is given as “Human”.
On to “571 (TTVHQRTIKSGCPPGYKSGVDCSPGSECKWGCYAVDGRRYGGYGADSGVGSTYTHEWYVD; Anti-C5 ultralong CDR-H3) [compound 571]”, for which, under setting [1], the Specificity entry is on record as “Human”.
On to “579 (HCSPGSDCSWGCYDRDDRRVDGAGADSGLGSTST; Anti-C5 ultralong CDR-H3 knob domain) [compound 579]”, for which the Specificity entry under setting [2] is “Human”.
Consider “580 (SCPDGYKDNRFCSPDGGCSAVSHWGWDSSCVS; Anti-C5 ultralong CDR-H3 knob domain) [compound 580]”, for which the Specificity result under setting [2] is on record as “Human”.
As to “581 (HCSPGSDCSWGCYDKDDRRVDGAGVASGLGST; Anti-C5 ultralong CDR-H3 knob domain) [compound 581]”, the Specificity entry under setting [2] is given as “Human”.
As to “582 (GCPPGYKSGVDCSPGSECKWGCYAVDGRRYGGYGADSGVGST; Anti-C5 ultralong CDR-H3 knob domain) [compound 582]”, the Specificity entry under setting [2] is listed as “Human”.
Regarding “583 (SCPDGYHFIEPCHSGLCWREGACNGDGICANGLGRCRTVSETST; Anti-C5 ultralong CDR-H3 knob domain) [compound 583]”, under setting [2], the Specificity entry was “Human”.
For the substance “584 (GCPTGTVAGVHCSPGSDCSWGCYDKDDRRVDGAGAASGLGST; Anti-C5 ultralong CDR-H3 knob domain) [compound 584]”, the Specificity result under setting [2] is reported as “Human”.
As to “585 (RCPDGCFLSSYCPVGYACSGFACCDCGGYDYAGGVRGGRCSVRSTT; Anti-C5 ultralong CDR-H3 knob domain) [compound 585]”, under setting [2], the Specificity result was “Human”.
In the case of “586 (NCPDGYKYNGFCTPDGGCSRVSSWGWDRSCISPT; Anti-C5 ultralong CDR-H3 knob domain) [compound 586]”, the Specificity entry under setting [2] was “Human”.
Still for that read-out and setting: as for “587 (GCPPGTVAGVHCSPGSDCSWGCYDRDDRRVDGAGADSGLGSTST; Anti-C5 ultralong CDR-H3 knob domain) [compound 587]”, the entry is “Human”.
Take “588 (SCPDGYHFIEPCHSGLCWREGACNGDGICANGLGRCRTVSETST; Anti-C5 ultralong CDR-H3 knob domain) [compound 588]”: the Specificity result under setting [2] is on record as “Human”.
For the substance “589 (GCPTGTVAGVHCSPGSDCSWGCYDADDRRVDGYGADSGVGSP; Anti-C5 ultralong CDR-H3 knob domain) [compound 589]”, the Specificity result under setting [2] was “Human”.
On to “590 (NCPDGYGYQRHCTVGEDCTDHCCDAYGLCTS; Anti-C5 ultralong CDR-H3 knob domain) [compound 590]”, for which the Specificity result under setting [2] was “Human”.
For “591 (NCPDGYGYQRHCTVGEDCTDSCCDRYGLCTTSTET; Anti-C5 ultralong CDR-H3 knob domain) [compound 591]”, the Specificity result under setting [2] is “Human”.
Regarding “592 (HCTVGEECTDSCCDRYGLCTTSTET; Anti-C5 ultralong CDR-H3 knob domain) [compound 592]”, the Specificity entry under setting [2] is listed as “Human”.
“593 (NCPDGYGYQRHCTVGEDCTERCCDNYGLCTSYTDT; Anti-C5 ultralong CDR-H3 knob domain) [compound 593]”: the Specificity entry under setting [2] is reported as “Human”.
As to “600 (RCPSNNEDATACRYSSVCGDYVCEGLSESYAQGWGACRRYACRDS; Anti-C5 ultralong CDR-H3 knob domain) [compound 600]”, the Specificity result under setting [2] is listed as “Human”.
For the substance “601 (NCPDGYEYNGFCTPDGGCSRVSNWGWDRSCISPT; Anti-C5 ultralong CDR-H3 knob domain) [compound 601]”, the Specificity entry under setting [2] was “Human”.
Regarding “602 (SCPDGYCDCNGCGYGNGCSRGGCFDFRLYSGYSADIVVSTT; Anti-C5 ultralong CDR-H3 knob domain) [compound 602]”, the Specificity entry under setting [2] is listed as “Human”.
On to “603 (SCPDGWGHSDDCNCACSANAYACCKRDWLLPGPSCECSTYCVS; Anti-C5 ultralong CDR-H3 knob domain) [compound 603]”, for which the Specificity result under setting [2] was “Human”.
“604 (SCPDGWSDCHGSCDGVGCTGSDCVRYNARGYGRHACSG; Anti-C5 ultralong CDR-H3 knob domain) [compound 604]”: under setting [2], the Specificity result is reported as “Human”.
For “605 (GCPPGYKSGVDCSPGSECKWGCYAVDGRRYGGYGADSGVGST; Anti-C5 ultralong CDR-H3 knob domain) [compound 605]”, the Specificity entry under setting [2] is given as “Human”.
As for “606 (TCPEGLVYNSDQSRCCAADSGVCWEYWRGERVTRGFT; Anti-C5 ultralong CDR-H3 knob domain) [compound 606]”, the Specificity result under setting [2] was “Human”.
With “607 (TCPDGYSYSEGCGKGDDCGGVHCCANGGVTCWYRHCCSTGTDT; Anti-C5 ultralong CDR-H3 knob domain) [compound 607]”, the Specificity result under setting [2] is listed as “Human”.
Consider “608 (RCPSNNEEATACRYSSVCGDYVCEGLSESYAQGWGACRRYACRDS; Anti-C5 ultralong CDR-H3 knob domain) [compound 608]”, for which, under setting [2], the Specificity result is “Human”.
With “609 (SGCPPGYKSGVDCSPGSEYKWGCYAVDGRRYGGYGADSGVGST; Anti-C5 ultralong CDR-H3 knob domain) [compound 609]”, the Specificity entry under setting [2] was “Human”.
